Test results taken from patent US11969464B2, “Amidated peptides and their deamidated counterparts displayed by HLA-A*02 for use in immunotherapy against different types of cancers” (Immatics Biotechnologies GmbH, priority 2020, dated 2024).

target: HLA-A*02:01 (Homo sapiens, UniProt P04439, D140Y/D185E/D98H/E176V/E277Q/G131W/G231S/I119V/I121R/I166T/I218V/L300P/L318F/N151K/N90K/P208A/P217A/Q86G/Q94H/R138H/R169H/T345S); experiment: MHC binding assay (UV-ligand exchange, anti-β2m ELISA); details: peptide exchange yield, binding to HLA-A*02:01
Excerpt: Candidate peptides for T cell based therapies according to the present invention were further tested for their MHC binding capacity (affinity). The individual peptide-MHC complexes were produced by UV-ligand exchange, where a UV-sensitive peptide is cleaved upon UV-irradiation and exchanged with the peptide of interest as analyzed. Only peptide candidates that can effectively bind and stabilize the peptide-receptive MHC molecules prevent dissociation of the MHC complexes. To determine the yield of the exchange reaction, an ELISA was performed based on the detection of the light chain (β2m) of stabilized MHC complexes. The assay was performed as generally described in Rodenko et al. (Rodenko et al., 2006).
96 well MAXISorp plates (NUNC) were coated over night with 2 μg/ml streptavidin in PBS at room temperature, washed 4× and blocked for 1 h at 37° C. in 2% BSA containing blocking buffer. Refolded HLA-A*02:01/MLA-001 monomers served as standards, covering the range of 15-500 ng/ml. Peptide-MHC monomers of the UV-exchange reaction were diluted 100-fold in blocking buffer. Samples were incubated for 1 h at 37° C., washed four times, incubated with 2 μg/ml HRP conjugated anti-β2m for 1 h at 37° C., washed again and detected with TMB solution that is stopped with […]. Absorption was measured at 450 nm. Candidate peptides that show a high exchange yield (preferably higher than 50%, most preferred higher than 75%) are generally preferred for a generation and production of antibodies or fragments thereof, and/or T cell receptors or fragments thereof, as they show sufficient avidity to the MHC molecules and prevent dissociation of the MHC complexes.

Substance | Peptide exchange
74 (KILDFTGPLFL; peptide displayed by HLA-A*02) [compound 74] | ++++ (≥75% = ++++)
75 (KLHDTSFCL; peptide displayed by HLA-A*02) [compound 75] | ++++ (≥75% = ++++)
77 (YLHGFDLSL; peptide displayed by HLA-A*02) [compound 77] | ++++ (≥75% = ++++)
78 (AIDQTITEA; peptide displayed by HLA-A*02) [compound 78] | +++ (≥50% = +++)
79 (ALAGLVYDA; peptide displayed by HLA-A*02) [compound 79] | ++++ (≥75% = ++++)
80 (ALDSSLQLL; peptide displayed by HLA-A*02) [compound 80] | ++++ (≥75% = ++++)
81 (AVDKTQTSV; peptide displayed by HLA-A*02) [compound 81] | +++ (≥50% = +++)
82 (FLNPDGSDCTL; peptide displayed by HLA-A*02) [compound 82] | ++++ (≥75% = ++++)
83 (FLNVDVSEV; peptide displayed by HLA-A*02) [compound 83] | ++++ (≥75% = ++++)
84 (KMLDETVLV; peptide displayed by HLA-A*02) [compound 84] | +++ (≥50% = +++)
85 (LLDITNPVL; peptide displayed by HLA-A*02) [compound 85] | ++++ (≥75% = ++++)
86 (NLADNTILV; peptide displayed by HLA-A*02) [compound 86] | ++++ (≥75% = ++++)
87 (NMYDLTFHV; peptide displayed by HLA-A*02) [compound 87] | ++++ (≥75% = ++++)
88 (RLLDETVDVTI; peptide displayed by HLA-A*02) [compound 88] | ++++ (≥75% = ++++)
89 (SLFIDVTRV; peptide displayed by HLA-A*02) [compound 89] | ++++ (≥75% = ++++)
90 (VLDGTEVNL; peptide displayed by HLA-A*02) [compound 90] | ++++ (≥75% = ++++)
91 (VLKDGTLVI; peptide displayed by HLA-A*02) [compound 91] | ++ (≥20% =++)
92 (YLADFSHAT; peptide displayed by HLA-A*02) [compound 92] | ++++ (≥75% = ++++)
93 (YLDGTFRLL; peptide displayed by HLA-A*02) [compound 93] | +++ (≥50% = +++)
94 (YLWWVNDQSL; peptide displayed by HLA-A*02) [compound 94] | ++++ (≥75% = ++++)
95 (KLAPEDLADLTAL; peptide displayed by HLA-A*02) [compound 95] | ++++ (≥75% = ++++)
99 (NLLDHSSMFL; peptide displayed by HLA-A*02) [compound 99] | ++++ (≥75% = ++++)
102 (WLIDKSMEL; peptide displayed by HLA-A*02) [compound 102] | ++++ (≥75% = ++++)
